From publication PMC7055233 come the findings set out here.

Assay [1] concerns the target MapZ cytoplasmic domain (MapZ_(cyto)), wild type, residues 1-159 (S. pneumoniae (strain ATCC BAA-255/R6)) (UniProt Q8DR55). Nature of the assay: NMR titration; 1H-15N BEST-TROSY of 15N MapZ_(cyto) (30 to 50 µM, one sample for each ratio) with unlabelled monomeric FtsZb (no GTP, no MgCl2), 5 °C; peak intensity decrease; apparent constants, 1:1 complex assumed.
For assay [2] the target is unchanged. Kind of assay: NMR titration; 1H-15N BEST-TROSY of 30 µM 15N MapZ_(cyto) with polymeric FtsZb at 1:1, 1:3, 1:4 and 1:6; 30 mM HEPES, 200 mM KCl, pH 7.5, 10 mM GTP and MgCl2, 5 °C; peak intensity decrease; apparent constants, 1:1 complex assumed.

Sequence of UniProt Q8DR55 (Q8DR55 other isoform, or with tags, fused parts or gaps): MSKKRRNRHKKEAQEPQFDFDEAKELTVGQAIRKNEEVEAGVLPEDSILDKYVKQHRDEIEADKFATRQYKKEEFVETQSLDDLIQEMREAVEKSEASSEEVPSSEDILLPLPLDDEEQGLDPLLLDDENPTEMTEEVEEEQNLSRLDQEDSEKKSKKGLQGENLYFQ

Regarding “FtsZb, wild-type FtsZ from S. pneumoniae with an N-terminal glycine left after removal of GST by TEV protease (natural protein)”, the Kd in assay [1] and in assay [2] was 10 to 100 µM each time.
